B1: ProPavDFR probe (dsDNA)
DNA 1: GTAATTACCACCGACCAAAAAAGAACATTG
DNA 2: CAATGTTCTTTTTTGGTCGGTGGTAATTAC
B2: ProPavUFGT probe (dsDNA)
DNA 1: ACTTCACGAGCTCATCGACTAATAAGAAAG
DNA 2: CTTTCTTATTAGTCGATGAGCTCGTGAAGT
B3: ProPavCHS probe (dsDNA)
DNA 1: GGGAAAGAAATTAAGTCGGTAGATGATATT
DNA 2: AATATCATCTACCGACTTAATTTCTTTCCC

Each binder was assayed against PavDREB1E-GST (Prunus avium, UniProt A0A6P5RM44 1-238) (assay: EMSA; unlabeled probe competes; Chemiluminescent EMSA kit (Beyotime), manufacturer's instructions; 2 ug PavDREB1E-GST in PavD8 assays; buffer, salt, pH and temperature not stated). Settings: protein: recombinant; tags: GST; label: biotin; only one strand given.
Chain of PavDREB1E-GST (A0A6P5RM44 entry or part of it): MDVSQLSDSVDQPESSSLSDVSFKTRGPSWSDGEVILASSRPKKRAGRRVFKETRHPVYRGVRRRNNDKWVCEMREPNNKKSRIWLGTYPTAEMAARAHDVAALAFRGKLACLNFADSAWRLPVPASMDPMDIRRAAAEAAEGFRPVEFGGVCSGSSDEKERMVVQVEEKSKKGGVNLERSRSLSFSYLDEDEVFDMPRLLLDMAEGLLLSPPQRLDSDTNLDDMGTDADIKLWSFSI

Binding result, binds:
B1
B2
B3

These binders were tested against PavDREB1E-GST;PavD8-GST (Prunus avium;Prunus avium, UniProt A0A6P5RM44;A0A6P5SVV0 1-238;1-537, |) (assay: EMSA; 2 ug PavDREB1E-GST with 2, 4, 6 ug PavD8-GST; PavD8 enhances the shifted band; Chemiluminescent EMSA kit (Beyotime), manufacturer's instructions; 2 ug PavDREB1E-GST in PavD8 assays; buffer, salt, pH and temperature not stated). Settings: protein: recombinant;recombinant; tags: GST;GST; label: biotin; only one strand given.
Chain of PavDREB1E-GST;PavD8-GST (chain, as listed by the source |, chain 1 of 2): as the sequence (A0A6P5RM44 entry or part of it) above
Chain of PavDREB1E-GST;PavD8-GST (chain, as listed by the source |, chain 2 of 2): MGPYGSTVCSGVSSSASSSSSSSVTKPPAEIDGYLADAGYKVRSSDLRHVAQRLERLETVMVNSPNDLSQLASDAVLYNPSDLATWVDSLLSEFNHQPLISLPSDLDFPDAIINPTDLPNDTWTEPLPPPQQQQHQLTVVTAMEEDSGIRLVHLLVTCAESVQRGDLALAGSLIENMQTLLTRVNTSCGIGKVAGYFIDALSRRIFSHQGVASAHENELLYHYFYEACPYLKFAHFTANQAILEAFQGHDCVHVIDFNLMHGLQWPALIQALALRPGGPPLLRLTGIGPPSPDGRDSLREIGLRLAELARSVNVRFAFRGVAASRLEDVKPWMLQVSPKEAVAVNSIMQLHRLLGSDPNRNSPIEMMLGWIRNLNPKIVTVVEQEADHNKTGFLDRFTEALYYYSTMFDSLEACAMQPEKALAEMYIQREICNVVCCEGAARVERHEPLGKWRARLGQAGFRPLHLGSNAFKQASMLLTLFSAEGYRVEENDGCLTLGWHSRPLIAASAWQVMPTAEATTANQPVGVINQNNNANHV

Binding result, binds:
B1
B2
B3

Reference: paper PMC12700780, “The PavDREB1E–PavD8–PavHY5 module integrates light and gibberellin signals to regulate sweet cherry anthocyanin biosynthesis”
